{
  "source": "paper PMC2962499",
  "target": "fluorescently labeled SpRpn12 (Schizosaccharomyces pombe) (UniProt P50524)",
  "assay": "fluorescence polarisation",
  "data": [
    {"binder": "NQFEYGVDPNLDVELALALELSMAEERARQEVAAQKSSEETEDKKMQE (domain or fragment)", "note": "[SpRpn10 residues 196-243 (UIM-containing C-terminal sequence)]", "values": [
      {"measurement": "Kd", "value": 18, "unit": "µM"}
    ]}
  ]
}
